Test results taken from patent US20190135872A1.

Tests used:
[1] = molecular target: BG505 NFL-TD+CC2-D4K_L555P w/rEK (HIV-1 BG505 (clade A)); experiment: ELISA, His-captured trimer
[2] = molecular target: 16055 NFL-TD+CC2-D4K_L555P w/rEK (HIV-1 16055 (clade C)); experiment: ELISA, His-captured trimer
[3] = molecular target: 16055 NFL-Q563P (HIV-1 16055 (clade C)); experiment: ELISA, His-captured trimer
[4] = molecular target: 16055 NFL-L555P (HIV-1 16055 (clade C)); experiment: ELISA, His-captured trimer
[5] = molecular target: BG505 NFL-TD+CC2-D4K_I559P (HIV-1 BG505 (clade A)); experiment: ELISA, His-captured trimer
[6] = molecular target: JRFL NFL-CC2 (HIV-1 JRFL (clade B)); experiment: ELISA, His-captured trimer
[7] = molecular target: BG505 NFL-CC2 (HIV-1 BG505 (clade A)); experiment: ELISA, His-captured trimer
[8] = molecular target: BG505 NFL-L555P (HIV-1 BG505 (clade A)); experiment: ELISA, His-captured trimer
[9] = molecular target: 16055 NFL (I559P) parental (HIV-1 16055 (clade C)); experiment: ELISA, His-captured trimer
[10] = molecular target: 16055 NFL-CC2 (HIV-1 16055 (clade C)); experiment: ELISA, His-captured trimer
[11] = molecular target: BG505 NFL (I559P) parental (HIV-1 BG505 (clade A)); experiment: ELISA, His-captured trimer
[12] = molecular target: BG505 NFL-TD+CC2-D4K_L555P (HIV-1 BG505 (clade A)); experiment: ELISA, His-captured trimer
[13] = molecular target: BG505 NFL-TD+CC2-D4K_I559P w/rEK (HIV-1 BG505 (clade A)); experiment: ELISA, His-captured trimer
[14] = molecular target: 16055 NFL-TD+CC2-D4K_I559P w/rEK (HIV-1 16055 (clade C)); experiment: ELISA, His-captured trimer
[15] = molecular target: 16055 NFL-TD+CC2-D4K_L555P (HIV-1 16055 (clade C)); experiment: ELISA, His-captured trimer
[16] = molecular target: 16055 NFL-TD+CC2-D4K_I559P (HIV-1 16055 (clade C)); experiment: ELISA, His-captured trimer
[17] = molecular target: 16055 NFL-Q563P (HIV-1 16055 (clade C)); experiment: BLI, IgG captured, trimer as analyte
[18] = molecular target: 16055 NFL-L555P (HIV-1 16055 (clade C)); experiment: BLI, IgG captured, trimer as analyte
[19] = molecular target: BG505 NFL-TD+CC2-D4K_I559P (HIV-1 BG505 (clade A)); experiment: BLI, IgG captured, trimer as analyte
[20] = molecular target: BG505 NFL-CC2 (HIV-1 BG505 (clade A)); experiment: BLI, IgG captured, trimer as analyte
[21] = molecular target: BG505 NFL-L555P (HIV-1 BG505 (clade A)); experiment: BLI, IgG captured, trimer as analyte
[22] = molecular target: BG505 NFL-S553P (HIV-1 BG505 (clade A)); experiment: BLI, IgG captured, trimer as analyte
[23] = molecular target: BG505 NFL-Q562P (HIV-1 BG505 (clade A)); experiment: BLI, IgG captured, trimer as analyte
[24] = molecular target: 16055 NFL-CC2 (HIV-1 16055 (clade C)); experiment: BLI, IgG captured, trimer as analyte
[25] = molecular target: BG505 NFL-N554P (HIV-1 BG505 (clade A)); experiment: BLI, IgG captured, trimer as analyte
[26] = molecular target: BG505 NFL (I559P) parental (HIV-1 BG505 (clade A)); experiment: BLI, IgG captured, trimer as analyte
[27] = molecular target: BG505 NFL-TD+CC2-D4K_L555P (HIV-1 BG505 (clade A)); experiment: BLI, IgG captured, trimer as analyte
[28] = molecular target: 16055 NFL-Q562P (HIV-1 16055 (clade C)); experiment: BLI, IgG captured, trimer as analyte
[29] = molecular target: 16055 NFL-TD+CC2-D4K_L555P (HIV-1 16055 (clade C)); experiment: BLI, IgG captured, trimer as analyte
[30] = molecular target: BG505 NFL-Q563P (HIV-1 BG505 (clade A)); experiment: BLI, IgG captured, trimer as analyte
[31] = molecular target: 16055 NFL-TD+CC2-D4K_I559P (HIV-1 16055 (clade C)); experiment: BLI, IgG captured, trimer as analyte

In the case of 2G12 (antibody), the EC50 [1] is reported as 0.021 µg/mL, the EC50 [2] is reported as 0.11 µg/mL and the EC50 [3] is reported as 0.066 µg/mL. For the same substance, the EC50 [4] was 0.051 µg/mL, the EC50 [5] was 0.024 µg/mL and the EC50 [6] was 0.022 µg/mL. For the same substance, the EC50 [7] was 0.025 µg/mL, the EC50 [8] was 0.022 µg/mL and the EC50 [9] was 2.34 µg/mL. For the same substance, the EC50 [10] was 0.056 µg/mL, the EC50 [11] was 0.029 µg/mL and the EC50 [12] was 0.027 µg/mL. For the same substance, the EC50 [13] was 0.031 µg/mL, the EC50 [14] was 0.105 µg/mL and the EC50 [15] was 0.038 µg/mL. For the same substance, the EC50 [16] was 0.043 µg/mL.

PG16 (antibody) gave an EC50 [1] of 0.307 µg/mL, an EC50 [2] of 0.122 µg/mL and an EC50 [3] of 0.102 µg/mL. The EC50 [4] was 0.121 µg/mL, the EC50 [5] was 0.206 µg/mL and the EC50 [6] was 0.216 µg/mL. For the same substance, the EC50 [7] was 0.143 µg/mL, the EC50 [8] was 0.101 µg/mL and the EC50 [10] was 0.089 µg/mL. The EC50 [11] was 0.144 µg/mL, the EC50 [12] was 0.215 µg/mL and the EC50 [13] was 0.336 µg/mL. For the same substance, the EC50 [14] was 0.19 µg/mL, the EC50 [15] was 0.115 µg/mL and the EC50 [16] was 0.123 µg/mL. It also gave a Kd [17] of 1.7 nM, a koff [17] of 0.0003 s⁻¹ and a kon [17] of 190000 M⁻¹ s⁻¹. For the same substance, the Kd [18] was 6.9 nM, the koff [18] was 0.0009 s⁻¹ and the kon [18] was 130000 M⁻¹ s⁻¹. The Kd [19] was 59 nM, the koff [19] was 0.0048 s⁻¹ and the kon [19] was 81000 M⁻¹ s⁻¹. For the same substance, the Kd [20] was 43 nM, the koff [20] was 0.0033 s⁻¹ and the kon [20] was 78000 M⁻¹ s⁻¹. For the same substance, the Kd [21] was 7.8 nM, the Kd [22] was 7.2 nM and the Kd [23] was 15 nM. The Kd [24] was 15 nM, the koff [24] was 0.0009 s⁻¹ and the kon [24] was 61000 M⁻¹ s⁻¹. It also gave a Kd [25] of 14 nM, a Kd [26] of 15 nM and a Kd [27] of 70 nM. It also gave a koff [27] of 0.0057 s⁻¹, a kon [27] of 81000 M⁻¹ s⁻¹ and a Kd [28] of 2.8 nM. It also gave a koff [28] of 0.0005 s⁻¹, a kon [28] of 170000 M⁻¹ s⁻¹ and a Kd [29] of 16 nM. It also gave a koff [29] of 0.0007 s⁻¹, a kon [29] of 43000 M⁻¹ s⁻¹ and a Kd [30] of 12 nM. It also gave a Kd [31] of 23 nM, a koff [31] of 0.001 s⁻¹ and a kon [31] of 43000 M⁻¹ s⁻¹.

Substance PGDM1400 (antibody) has an EC50 [1] of 0.04 µg/mL, an EC50 [2] of 0.025 µg/mL and an EC50 [3] of 0.016 µg/mL. For the same substance, the EC50 [4] was 0.019 µg/mL, the EC50 [5] was 0.038 µg/mL and the EC50 [6] was 0.2 µg/mL. For the same substance, the EC50 [7] was 0.018 µg/mL, the EC50 [8] was 0.02 µg/mL and the EC50 [10] was 0.018 µg/mL. It also gave an EC50 [11] of 0.039 µg/mL, an EC50 [12] of 0.042 µg/mL and an EC50 [13] of 0.038 µg/mL. It also gave an EC50 [14] of 0.03 µg/mL, an EC50 [15] of 0.021 µg/mL and an EC50 [16] of 0.025 µg/mL. For the same substance, the Kd [17] was 1.3 nM, the koff [17] was 0.0004 s⁻¹ and the kon [17] was 300000 M⁻¹ s⁻¹. The Kd [18] was 2.3 nM, the koff [18] was 0.0004 s⁻¹ and the kon [18] was 200000 M⁻¹ s⁻¹. The Kd [19] was 18 nM, the koff [19] was 0.0016 s⁻¹ and the kon [19] was 88000 M⁻¹ s⁻¹. It also gave a Kd [20] of 24 nM, a koff [20] of 0.0018 s⁻¹ and a kon [20] of 76000 M⁻¹ s⁻¹. For the same substance, the Kd [21] was 5.1 nM, the Kd [22] was 11 nM and the Kd [23] was 13 nM. The Kd [24] was 14 nM, the koff [24] was 0.0016 s⁻¹ and the kon [24] was 110000 M⁻¹ s⁻¹. It also gave a Kd [25] of 2.5 nM, a Kd [26] of 11 nM and a Kd [27] of 23 nM. For the same substance, the koff [27] was 0.002 s⁻¹, the kon [27] was 88000 M⁻¹ s⁻¹ and the Kd [28] was 1.4 nM. It also gave a koff [28] of 0.0003 s⁻¹, a kon [28] of 230000 M⁻¹ s⁻¹ and a Kd [29] of 13 nM. It also gave a koff [29] of 0.0016 s⁻¹, a kon [29] of 120000 M⁻¹ s⁻¹ and a Kd [30] of 5 nM. For the same substance, the Kd [31] was 21 nM, the koff [31] was 0.0021 s⁻¹ and the kon [31] was 98000 M⁻¹ s⁻¹.

PGT128 (antibody) showed an EC50 [1] of 0.037 µg/mL, an EC50 [2] of 0.071 µg/mL and an EC50 [3] of 0.068 µg/mL. It also gave an EC50 [4] of 0.056 µg/mL, an EC50 [5] of 0.036 µg/mL and an EC50 [6] of 0.04 µg/mL. For the same substance, the EC50 [7] was 0.035 µg/mL, the EC50 [8] was 0.021 µg/mL and the EC50 [10] was 0.135 µg/mL. It also gave an EC50 [11] of 0.039 µg/mL, an EC50 [12] of 0.041 µg/mL and an EC50 [13] of 0.036 µg/mL. For the same substance, the EC50 [14] was 0.08 µg/mL, the EC50 [15] was 0.05 µg/mL and the EC50 [16] was 0.055 µg/mL.
